Several values for one entry are separate records, joined by “and”; a condition that tells them apart may be missing. Equal values may be shown once.
Experiments:
Assay in all cases: SPR, kinetics, Fab over captured mutant
shCD131 Y421A = target: T1, shCD131 Y421A (human, UniProt P32927 17-438)
T1 construct: C-terminal 6xHis
T1 sequence: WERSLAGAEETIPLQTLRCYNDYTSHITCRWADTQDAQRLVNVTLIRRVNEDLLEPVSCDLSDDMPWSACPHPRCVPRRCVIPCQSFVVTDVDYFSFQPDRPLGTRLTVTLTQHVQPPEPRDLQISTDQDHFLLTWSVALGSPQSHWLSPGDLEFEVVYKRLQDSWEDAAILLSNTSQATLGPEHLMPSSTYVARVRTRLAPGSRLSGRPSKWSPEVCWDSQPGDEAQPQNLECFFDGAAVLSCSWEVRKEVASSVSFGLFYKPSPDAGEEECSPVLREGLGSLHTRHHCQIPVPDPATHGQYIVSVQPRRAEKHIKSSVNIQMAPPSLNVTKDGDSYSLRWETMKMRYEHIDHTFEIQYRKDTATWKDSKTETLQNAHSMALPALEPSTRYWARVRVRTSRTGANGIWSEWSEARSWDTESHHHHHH

shCD131 E366A = target: T2, shCD131 E366A (human, UniProt P32927 17-438)
T2 construct: C-terminal 6xHis
T2 sequence: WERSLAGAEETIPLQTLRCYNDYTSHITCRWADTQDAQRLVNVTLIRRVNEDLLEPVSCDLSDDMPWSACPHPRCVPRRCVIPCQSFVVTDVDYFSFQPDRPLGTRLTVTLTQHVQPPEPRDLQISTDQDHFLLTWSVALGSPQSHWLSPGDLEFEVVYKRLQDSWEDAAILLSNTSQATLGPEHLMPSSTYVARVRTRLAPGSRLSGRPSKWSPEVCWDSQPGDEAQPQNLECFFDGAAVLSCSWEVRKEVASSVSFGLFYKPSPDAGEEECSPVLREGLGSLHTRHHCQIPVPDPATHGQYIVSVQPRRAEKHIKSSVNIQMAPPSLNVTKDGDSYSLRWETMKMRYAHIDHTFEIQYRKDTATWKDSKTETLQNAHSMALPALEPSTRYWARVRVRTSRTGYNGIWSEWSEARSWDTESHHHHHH

shCD131 N337A = target: T3, shCD131 N337A (human, UniProt P32927 17-438)
T3 construct: C-terminal 6xHis
T3 sequence: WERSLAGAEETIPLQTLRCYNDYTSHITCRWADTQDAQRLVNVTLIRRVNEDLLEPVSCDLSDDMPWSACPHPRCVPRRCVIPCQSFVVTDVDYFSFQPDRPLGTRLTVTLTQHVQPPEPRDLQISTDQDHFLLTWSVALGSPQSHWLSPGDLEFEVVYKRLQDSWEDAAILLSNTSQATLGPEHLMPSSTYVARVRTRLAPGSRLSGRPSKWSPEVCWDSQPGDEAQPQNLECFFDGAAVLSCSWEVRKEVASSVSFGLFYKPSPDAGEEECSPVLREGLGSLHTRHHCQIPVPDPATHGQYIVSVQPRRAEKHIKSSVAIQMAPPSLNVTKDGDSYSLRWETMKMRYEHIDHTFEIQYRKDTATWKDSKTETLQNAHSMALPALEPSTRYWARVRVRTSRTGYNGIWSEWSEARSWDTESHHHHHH

shCD131 K362A = target: T4, shCD131 K362A (human, UniProt P32927 17-438)
T4 construct: C-terminal 6xHis
T4 sequence: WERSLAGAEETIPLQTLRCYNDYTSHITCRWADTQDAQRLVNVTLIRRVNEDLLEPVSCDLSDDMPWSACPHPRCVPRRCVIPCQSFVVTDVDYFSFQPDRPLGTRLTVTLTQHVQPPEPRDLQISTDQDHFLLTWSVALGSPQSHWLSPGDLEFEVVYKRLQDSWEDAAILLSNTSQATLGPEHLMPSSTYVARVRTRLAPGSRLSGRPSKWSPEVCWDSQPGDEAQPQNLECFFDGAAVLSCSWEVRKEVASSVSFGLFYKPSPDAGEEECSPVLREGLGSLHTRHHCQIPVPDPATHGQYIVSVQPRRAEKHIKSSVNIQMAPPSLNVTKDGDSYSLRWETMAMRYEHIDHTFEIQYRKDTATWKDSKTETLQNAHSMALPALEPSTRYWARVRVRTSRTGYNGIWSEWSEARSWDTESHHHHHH

- Kd (shCD131 Y421A): 167 nM
- Kd (shCD131 E366A): 32 nM
- Kd (shCD131 N337A): 91 nM
- Kd (shCD131 K362A): 64.8 nM and 65 nM
B1: 9A2 Fab (Fab, V domains shown)
VH: EVQLLESGGGLVQPGGSLRLSCAASGFTFSHYHMLWVRQAPGKGLEWVSSIRSSGGFTYYADSVKGRFTISRDNSKNTLYLQMNSLRAEDTAVYYCARFYDSFFDIWGQGTMVTVSS
VL: DIQMTQSPSSVSASVGDRVTITCRASQGISSWLAWYQQKPGKAPKLLIYAASSLQSGVPSRFSGSGSGTDFTLTISSLQPEDFATYYCQQANSFPITFGQGTRLEIKR
notes: also called recombinant Fab of 9A2
